{"source": "patent US20030170895A1", "about": "“Methods of making hypermutable cells using PMSR homologs” (priority 2002, published 2003)", "key": {"[1]": {"test_system": "Yeast cells that express hPMS2-R2", "assay": "Chemical mutagen (EMS) plus MMR-defective yeast, ura mutant selection on 5-FOA plates", "assay_type": "cell-based", "conditions": "EMS 0-200 pM, 30-120 minutes; PMS2-R2 cultures induced with methanol vs uninduced parental or wild type strain", "from_the_text": "It has been previously documented that MMR deficiency yields to increased mutation frequency and increased resistance to toxic effects of chemical mutagens (CM) and their respective analogues such as but not limited to those as: ethidium bromide, EMS, MNNG, MNU, Tamoxifen, 8-Hydroxyguanine, as well as others listed but not limited to in publications by: Khromov-Borisov, N. N., et al. (1999) Mutat. Res. 430:55-74; Ohe, T. et al. (1999) Mutat. Res. 429:189-199; Hour, T. C. et al. (1999) Food Chem. Toxicol. 37:569-579; Hrelia, P. et al. (1999) Chem. Biol. Interact. 118:99-111; Garganta, F. et al. (1999) Environ. Mol. Mutagen. 33:75-85; Ukawa-Ishikawa S. et al. (1998) Mutat. Res. 412:99-107; www.ehs.utah.edu/ohh/mutagens; Marcelino, L. A. et al (1998) Cancer Res. 58(13):2857-2862; Koi, M. et al. (1994) Cancer Res. 54:4308-4312. Mismatch repair provokes chromosome aberrations in hamster cells treated with methylating agents or 6thioguanine, but not with ethylating agents.\nYeast cells that express hPMS2-R2 (induced or un-induced) and empty vector control cells are grown as described in Examples 5 and 6) and for 24 hours and diluted into MM medium as described above. Next, the cells in MM are incubated either with or without increasing amounts of ethyl methane sulfonate (EMS) from 0, 1, 10, 50, 100, and 200 pM. […] Mutants are selected and scored as above. […]"}, "[2]": {"test_system": "wild type yeast cell", "conditions": "mutagen treatment; Boeke et al. 1984; cited from earlier work"}, "[3]": {"test_system": "293 cells", "assay": "β-galactosidase activity from MMR-sensitive pCAR-OF reporter", "assay_type": "cell-based", "conditions": "293 cells expressing the homolog plus pCAR-OF reporter, grown 17 days; FIG. 5", "from_the_text": "Cells in which MMR activity is decreased results in MI leading to insertion-deletion mutations within the β-galactosidase gene, a subset of which will restore the open reading frame (ORF) and produce functional enzyme. Cells are grow for 17 days and then harvested for protein lysates to measure β-galactosidase activity generated by each cell line. Cells in which a high rate of mutagenesis has occurred will produce β-galactosidase activity, while cells in which MMR activity is functional will retain background levels of enzymatic activity. Each cell line was tested in two independent experiments (experiment 1 and experiment 2). Extracts were incubated with a calorimetric galactose substrate for 1 hour. Enzyme activity as a function of substrate conversion was measured by optical density at 576 nm as described (Nicolaides, N. C. et al. (1998) Mol. Cell. Biol. 18:1635-1641). […] MI was monitored at the gene level to confirm that genetic alterations occurred within the polynucleotide repeat disrupting the β-galactosidase ORF."}, "[4]": {"test_system": "Pichia pastoris yeast cells", "assay": "Generation of uracil requiring mutants, 5-FOA selection after methanol induction", "assay_type": "cell-based", "procedure": "Pichia pastoris yeast cells were transformed with pPIC3.5K vector, pPIC3.5K-PMS134, and pPIC3.5K-hR2 as follows. First, 5 ml of YPD (1% yeast extract, 2% bacto-peptone, 1% dextrose) medium was inoculated with a single colony from a YPD plate (same as YPD liquid but add 2% Difco agar to plate) and incubated with shaking overnight at 30° C. The overnight culture was used to inoculate 500 ml of YPD medium (200 ul of overnight culture) and the culture incubated at 30° C. until the optical density at 600 nm reached 1.3 to 1.5. The cells were then spun down (4000×g for 10 minutes), and then washed 2 times in sterile water (one volume each time), then the cells suspended in 20 ml of 1 M sorbitol. The sorbitol/cell suspension was spun down (4,000×g for 10 minutes) and suspended in 1 ml of 1 M sorbitol. 80 ul of the cell suspension was mixed with 5 to 10 ug of linearized plasmid DNA and placed in a 0.2 cm cuvette, pulsed length 5 to 10 milliseconds at field strength of 7,500 V/cm. Next, the cells are diluted in 1 ml of 1 M sorbitol and transferred to a 15 ml tube and incubated at 30° C. for 1 to 2 hours without shaking. Next, the cells are spun out (4,000×G for 10 minutes) and suspended in 100 ul of sterile water, and 50 ul/plate spread onto the appropriate selective medium plate. The plates are incubated for 2 to 3 days at 30° C. and colonies patched out onto YPD plates for further testing. […]"}}}
{"molecule": "CCOS(C)(=O)=O", "note": "[EMS, ethyl methane sulfonate]", "values": [{"measurement": "frequency of ura mutants", "setting": "[1]", "value": "increase in the frequency of ura mutants"}, {"measurement": "number of ura mutants", "setting": "[2]", "value": "low number of ura mutants"}]}
{"molecule": "PMSR3: human PMS2 homolog, dominant negative mismatch repair inhibitor (SEQ ID NO:19/20) (protein, listed as Homo sapiens) MCPWRPRLGRRCMVSPREADLGPQKDTRLDLPRSPARAPREQNSLGEVDRRGPREQTRAPATAAPPRPLGSRGAEAAEPQEGLSATVSACFQEQQEMNTLQGPVSFKDVAVDFTQEEWRQLDPDEKIAYGDVMLENYSHLVSVGYDYHQAKHHHGVEVKEVEQGEEPWIMEGEFPCQHSPEPAKAIKPIDRKSVHQICSGPVVLSLSTAVKELVENSLDAGATNIDLKLKDYGVDLIEVSDNGCGVEEENFEGLISFSSETSHM", "values": [{"measurement": "microsatellite instability / β-galactosidase activity", "setting": "[3]", "value": "high degree of MI leading to an increase in β-galactosidase activity"}]}
{"molecule": "PMSR2: human PMS2 related gene/protein, PMS2 homolog, dominant negative mismatch repair inhibitor (SEQ ID NO:17/18) (protein, listed as Homo sapiens) MAQPKQERVARARHQRSETARHQRSETAKTPTLGNRQTPTLGNRQTPRLGIHARPRRRATTSLLTLLLAFGKNAVRCALIGPGSLTSRTRPLTEPLGEKERREVFFPPRPERVEHNVESSRWEPRRRGACGSRGGNFPSPRGGSGVASLERAENSSTEPAKAIKPIDRKSVHQICSGPVVPSLRPNAVKELVENSLDAGATNVDLKLKDYGVDLIEVSGNGCGVEEENFEGFTLKHHTCKIQEFADLTQVETFGFRGEALSSLCALSDVTISTCRVSAKVGTRLVFDHYGKIIQKTPYPRPRGMTVSVKQLFSTLPVHHKEFQRNIKKKRACFPFAFCRDCQFPEASPAMLPVQPVELTPRSTPPHPCSLEDNVITVFSSVKNGPGSSR", "values": [{"measurement": "uracil requiring clones on 5-FOA selection medium", "setting": "[4]; methanol induced culture", "value": "have clones that are capable of growth on the selection medium"}, {"measurement": "colonies resistant to 5-FOA", "setting": "[4]; uninduced culture", "value": "does not have any colonies that are resistant to 5-FOA"}, {"measurement": "microsatellite instability / β-galactosidase activity", "setting": "[3]", "value": "high degree of MI leading to an increase in β-galactosidase activity"}]}
